Source: patent US10766960 (dated 2020)
Changes are numbered by the printed parent chain. Read-outs that look alike come from different tables or passages of the source. One block for each binder: values may come before it.

Columns and labels:
Test in all cases: SPR
FcgRIa [1] = biological target: T1, FcgRIa (human, UniProt P12314)
T1 chain: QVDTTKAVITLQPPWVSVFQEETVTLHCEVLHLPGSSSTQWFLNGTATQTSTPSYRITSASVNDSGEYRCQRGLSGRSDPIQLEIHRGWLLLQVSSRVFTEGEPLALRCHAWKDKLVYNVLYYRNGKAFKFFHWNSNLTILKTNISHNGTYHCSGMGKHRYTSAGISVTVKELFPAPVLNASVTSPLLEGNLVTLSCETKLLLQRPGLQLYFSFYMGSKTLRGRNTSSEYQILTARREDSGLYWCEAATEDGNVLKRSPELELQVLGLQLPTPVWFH

FcgRIIIa F [2] = biological target: T2, FcgRIIIa F (human, UniProt P08637)
FcgRIIIa V [3] = biological target: T3, FcgRIIIa V (human, UniProt P08637)
FcgRIIb [4] = biological target: T4, FcgRIIb (human, UniProt P31994)
T4 chain: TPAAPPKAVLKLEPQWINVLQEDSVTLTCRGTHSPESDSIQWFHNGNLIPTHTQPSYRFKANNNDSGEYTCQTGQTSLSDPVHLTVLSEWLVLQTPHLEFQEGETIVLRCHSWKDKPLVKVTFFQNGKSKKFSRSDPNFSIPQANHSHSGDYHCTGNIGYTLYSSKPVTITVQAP

FcgRIIa R [5] = biological target: T5, FcgRIIa R (human, UniProt P12318)
T5 chain: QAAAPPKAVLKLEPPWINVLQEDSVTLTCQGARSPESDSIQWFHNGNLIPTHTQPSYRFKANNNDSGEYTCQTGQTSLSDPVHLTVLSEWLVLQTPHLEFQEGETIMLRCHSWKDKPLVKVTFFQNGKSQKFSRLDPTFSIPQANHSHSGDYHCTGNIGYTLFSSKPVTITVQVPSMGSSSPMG

FcgRIIa H [6] = biological target: T6, FcgRIIa H (human, UniProt P12318)
T6 chain: T5 chain with R134H

FcgRIIIa V [7] = biological target: T3, FcgRIIIa V; remark: listed apart in the source
FcgRIIIa F [8] = biological target: T2, FcgRIIIa F; remark: listed apart in the source
FcgRIIb [9] = biological target: T4, FcgRIIb
FcgRIIa R [10] = biological target: T5, FcgRIIa R
FcgRIa [11] = biological target: T1, FcgRIa
FcgRIIa H [12] = biological target: T6, FcgRIIa H

T3 sequence (P08637 17-208 F176V): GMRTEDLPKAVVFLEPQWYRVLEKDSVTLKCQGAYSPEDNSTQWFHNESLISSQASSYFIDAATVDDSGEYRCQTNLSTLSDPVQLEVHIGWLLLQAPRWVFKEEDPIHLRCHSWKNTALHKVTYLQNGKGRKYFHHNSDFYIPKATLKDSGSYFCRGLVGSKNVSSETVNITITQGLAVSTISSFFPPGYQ
T2 sequence (P08637 17-208): as the sequence (P08637 17-208 F176V) above, with V160F counted along it

Kd (FcgRIa [1]): 0.18 nM
Kd (FcgRIIIa F [2]): 12 nM
Kd (FcgRIIIa V [3]): 5.4 nM
Kd (FcgRIIb [4]): 190 nM
Kd (FcgRIIa R [5]): 14 nM
Kd (FcgRIIa H [6]): 41 nM
B1: H240-Kn120/H240-Hl089/L73-k0 (antibody)
chain 1: QDQLVQSGAEVKKPGASVKVSCKASGFNIKDTYIQWVRQAPGQGLEWMGRIDPLRKQTKYREKFEGRVTITADTSTNTAYMELSSLRSEDTAVYYCVRSGREFDYWGQGTLVTVSSASTKGPSVFPLAPSSKSTSGGTAALGCLVKDYFPEPVTVSWNSGALTSGVHTFPAVLQSSGLYSLSSVVTVPSSSLGTQTYICNVNHKPSNTKVDKKVEPKSCDKTHTCPPCPAPEYYWGPMVFLFPPKPKDTLMISRTPEVTCVVVDVSDEDPEVKFNWYVDGVEVHNAKTKPREEQYNATYRVVSVLTVLHQDWLNGKEYKCKVSNKDLPAPIEKTISKAKGQPREPQVCTLPPSRDELTKNQVSLWCLVKGFYPSDIAVEWESNGQPENNYKTTPPVLDSDGSFFLYSKLTVDKSRWQQGNVFSCSVMHEALHNHYTQKSLSLSP
chain 2: QDQLVQSGAEVKKPGASVKVSCKASGFNIKDTYIQWVRQAPGQGLEWMGRIDPLRKQTKYREKFEGRVTITADTSTNTAYMELSSLRSEDTAVYYCVRSGREFDYWGQGTLVTVSSASTKGPSVFPLAPSSKSTSGGTAALGCLVKDYFPEPVTVSWNSGALTSGVHTFPAVLQSSGLYSLSSVVTVPSSSLGTQTYICNVNHKPSNTKVDKKVEPKSCDKTHTCPPCPAPELLTGPSVFLFPPKPKDTLMISRTPEVTCVVVDVSHEEPEVKFNWYVDGVEVHNAKTKPREEQYNSTYRVVSVLTVLHQDWLNGKEYKCKVSNDALPKPIEETISKAKGQPREPQVYTLPPSRCELTKNQVSLSCAVKGFYPSDIAVEWESNGQPENNYKTTPPVLDSDGSFFLVSKLTVDKSRWQQGNVFSCSVMHEALHNHYTQKSLSLSP
chain 3: DIQMTQSPSSLSASVGDRVTITCRASQDIHKYIAWYQQKPGQAPRLLIQYTSTLQPGVPSRFSGSGSGTDYTFTISSLQPEDIATYYCLQYEQLRTFGGGTKVEIKRTVAAPSVFIFPPSDEQLKSGTASVVCLLNNFYPREAKVQWKVDNALQSGNSQESVTEQDSKDSTYSLSSTLTLSKADYEKHKVYACEVTHQGLSSPVTKSFNRGEC

Kd (FcgRIa [1]): 1.4 nM
Kd (FcgRIIIa F [2]): 33 nM
Kd (FcgRIIIa V [3]): 14 nM
Kd (FcgRIIb [4]): 480 nM
Kd (FcgRIIa R [5]): 22 nM
Kd (FcgRIIa H [6]): 53 nM
B2: H240-Kn120/H240-Hl086/L73-k0 (antibody)
chain 1: B1 chain 1
chain 2: B1 chain 2 with T235I
chain 3: B1 chain 3

Kd (FcgRIa [1]): 0.3 nM
Kd (FcgRIIIa F [2]): 3.1 nM
Kd (FcgRIIIa V [3]): 0.67 nM
Kd (FcgRIIb [4]): 240 nM
Kd (FcgRIIa R [5]): 21 nM
Kd (FcgRIIa H [6]): 33 nM
B3: H240-Kn180/H240-Hl068/L73-k0 (antibody)
chain 1: B1 chain 1 with E293R
chain 2: B1 chain 2 with T235G
chain 3: B1 chain 3

Kd (FcgRIIIa V [7]): 1.3 nM
Kd (FcgRIIIa F [8]): 3.7 nM
Kd (FcgRIIb [9]): 110 nM
Kd (FcgRIIa R [10]): 4.8 nM
Kd (FcgRIa [11]): 0.019 nM
Kd (FcgRIIa H [12]): 11 nM
B4: GpH7-Kn045/GpH7-Hl048/GpL16-k0 (antibody)
chain 1: QVQLVQSGAEVKKPGASVTVSCKASGYTFTDYEMHWIRQPPGEGLEWIGAIDPKTGDTAYSESFQDRVTLTADKSTSTAYMELSSLTSEDTAVYYCTRFYSYTYWGQGTLVTVSSASTKGPSVFPLAPSSKSTSGGTAALGCLVKDYFPEPVTVSWNSGALTSGVHTFPAVLQSSGLYSLSSVVTVPSSSLGTQTYICNVNHKPSNTKVDKKVEPKSCDKTHTCPPCPAPEYYAGPSVFLFPPKPKDTLMISRTPEVTCVVVDVSDEDPEVKFNWYVDGVEVHNAKTKPREEQYNATYRVVSVLTVLHQDWLNGKEYKCKVSNKALPAPIEKTISKAKGQPREPQVCTLPPSRDELTKNQVSLWCLVKGFYPSDIAVEWESNGQPENNYKTTPPVLDSDGSFFLYSKLTVDKSRWQQGNVFSCSVMHEALHNHYTQKSLSLSP
chain 2: QVQLVQSGAEVKKPGASVTVSCKASGYTFTDYEMHWIRQPPGEGLEWIGAIDPKTGDTAYSESFQDRVTLTADKSTSTAYMELSSLTSEDTAVYYCTRFYSYTYWGQGTLVTVSSASTKGPSVFPLAPSSKSTSGGTAALGCLVKDYFPEPVTVSWNSGALTSGVHTFPAVLQSSGLYSLSSVVTVPSSSLGTQTYICNVNHKPSNTKVDKKVEPKSCDKTHTCPPCPAPELLAGPDVFLFPPKPKDTLMISRTPEVTCVVVDVSHEDPEVKFNWYVDGVEVHNAKTKPREEQYNSTYRVVSVLTVLHQDWLNGKEYKCKVSNKALPKPEEKTISKAKGQPREPQVYTLPPSRCELTKNQVSLSCAVKGFYPSDIAVEWESNGQPENNYKTTPPVLDSDGSFFLVSKLTVDKSRWQQGNVFSCSVMHEALHNHYTQKSLSLSP
chain 3: DIVMTQSPLSLPVTPGEPASISCQASESLVHSNRNTYLHWYLQKPGQSPQLLIYKVSNRFSGVPDRFSGSGSGTDFTLKISRVEAEDVGVYYCSQNTHVPPTFGQGTKVEIERTVAAPSVFIFPPSDEQLKSGTASVVCLLNNFYPREAKVQWKVDNALQSGNSQESVTEQDSKDSTYSLSSTLTLSKADYEKHKVYACEVTHQGLSSPVTKSFNRGEC

Kd (FcgRIIIa V [7]): 0.72 nM
Kd (FcgRIIIa F [8]): 1.6 nM
Kd (FcgRIIb [9]): 240 nM
Kd (FcgRIIa R [10]): 13 nM
Kd (FcgRIa [11]): 0.019 nM
Kd (FcgRIIa H [12]): 29 nM
B5: GpH7-Kn045/GpH7-Hl055/GpL16-k0 (antibody)
chain 1: B4 chain 1
chain 2: B4 chain 2 with Q293L, K328M
chain 3: B4 chain 3

Kd (FcgRIIIa V [7]): 0.66 nM
Kd (FcgRIIIa F [8]): 1.4 nM
Kd (FcgRIIb [9]): 260 nM
Kd (FcgRIIa R [10]): 17 nM
Kd (FcgRIa [11]): 0.023 nM
Kd (FcgRIIa H [12]): 30 nM
B6: GpH7-Kn056/GpH7-Hl055/GpL16-k0 (antibody)
chain 1: B4 chain 1 with Q293L
chain 2: B4 chain 2 with Q293L, K328M
chain 3: B4 chain 3

Kd (FcgRIIIa V [7]): 220 nM
Kd (FcgRIIIa F [8]): 1600 nM
Kd (FcgRIIb [9]): 3600 nM
Kd (FcgRIIa R [10]): 740 nM
Kd (FcgRIa [11]): 0.069 nM
Kd (FcgRIIa H [12]): 590 nM
B7: GpH7-Kn033/GpH7-Hl033/GpL16-k0 (antibody)
chain 1: not shown
chain 2: not shown
chain 3: B4 chain 3

Kd (FcgRIIIa V [7]): 2.6 nM
Kd (FcgRIIIa F [8]): 9.7 nM
Kd (FcgRIIb [9]): 230 nM
Kd (FcgRIIa R [10]): 17 nM
Kd (FcgRIa [11]): 0.012 nM
Kd (FcgRIIa H [12]): 27 nM
B8: GpH7-Kn037/GpH7-Hl036/GpL16-k0 (antibody)
chain 1: B4 chain 2 with K328A, Y347C, C354D, S364W, A366L, V405Y
chain 2: B4 chain 2 with K328A
chain 3: B4 chain 3

Kd (FcgRIIIa V [7]): 1.2 nM
Kd (FcgRIIIa F [8]): 4.1 nM
Kd (FcgRIIb [9]): 440 nM
Kd (FcgRIIa R [10]): 250 nM
Kd (FcgRIa [11]): 0.0028 nM
Kd (FcgRIIa H [12]): 470 nM
B9: GpH7-Kn032/GpH7-Hl032/GpL16-k0 (antibody)
chain 1: B4 chain 2 with A234G, K328L, Y347C, C354D, S364W, A366L, V405Y
chain 2: B4 chain 2 with A234G, K328L
chain 3: B4 chain 3
